Tested on: infectious human adenovirus 2 (HAdV-2, whole virus) (Human adenovirus 2)
Experiment: ELONA
Conditions: SELEX buffer 20 mM Tris, 100 mM NaCl, 2.5 mM MgCl2, pH 7.2, room temperature

GGCTGCAGCTGAAGCACTGGTTTTGAGTCAAACCCAGACGATGGA [Apt-HAdV]
Kd: 900 pM
